Data published in patent publication US20240240160A1, “NOVEL OLIVETOL SYNTHASES FOR C[…]” (priority 2021, published 2024).

B1: XP_020591420.1: Type-III PKS enzyme from Phalaenopsis equestris (protein, listed as Phalaenopsis equestris)
chain: MPNMESIKKEDGLATIMAIGRALPPNSIDQNSFPDFYFRVHNSEHLMDLKNKFRRICERTAIRKRHFVWNEEVLKQNPCLRTFMEPSLNTRQEIVCSEIPKLGAEAARNAIREWGQPERSITHLIFCTTSGMNLPGADFEAAQILGLNHSVERVMLYQQGCFAGGTVLRLAKCLAESRRGARVLVICAESTTSLVRSPSREHQYDLIAQALFADGASALIIGTEPNAEAGERPIFSIFSTAQVTLPDSGDAIRGYLKEGGLIATLAKDVPLIISENIERCLQEAFGPLGISDWNSIFWAPHPGGRAILDGIEDKLGLKPEKLWAARHVLAEYGNMSSVCVHYILDEMRRRDVKNGKAPTGDGPEWGVLFGFGPGLTVETVVLRRLFL
modifications: (1)..(387) XP_020591420.1
B2: XP_020704098.1: Type-III PKS enzyme from Dendrobium catenatum (protein, listed as Dendrobium catenatum)
chain: MPSLESIKKAPRADGFASILAIGRANPENFIEQSAYPDLFFRITNSEHLVDLKNKFKRICDKTAIRKRHFVWTEEFITANPCFSTFMDKSLNIRQEVAIREIPKLGAEAATKAIQEWGQPKSRITHLIFCTTSGMDLPGADYQLTQILGLNPNVERVMLYQQGCFAGGTTIRLAKCLAESRKGARVLVVCAETTTVLFRGPSEEHQDDLVTQALFADGASALIVGADPDEAADEHASFVIVSTSQVLLPDSAGAIGGHVSEGGLLATLHRDVPQIVSKNVGKCLEEAFTPLGISDWNSIFWVPHPGGRAILDQVEESVGLKPEKLFISRHVLAEYGNMSSVCVHFALDEMRKRSAKEGKATTGEGLEWGVLFGFGPGVTVETVILRSVPI
modifications: (1)..(390) XP_020704098.1
B3: AHH25569.1: Type-III PKS enzyme from Bletilla striata (protein, listed as Bletilla striata)
chain: MPSLDSIKKAPRADGIASILAIGRANPDNIIEQSAYPDFYFRVTNSEHLVDLKKKFQRICEKTAIRKRHFVWNEEFLTSNPSFSTFMDKSLYVRQEVAIREIPKLGAKAATKAIEDWGQPKSRISHLIFCTTSGMDLPGADYQLTQILGLNPNVERLMLYEQGCFAGGTTLRLAKCLAESRKGARVLVVCAETTTVLFRAPSEEHQDDLVTQALFADGASALIVGADPDEAADERASFVIVSTSQVLLPDTAGAIGGHVSEGGLLATLHRDVPQIVTKNVGKCLEEAFTPFGISDWNSIFWVPHPGGRAILDQVEERVGLKPEKLSVSRHVLAEYGNMSSVCVHFALDEMRKRSANEGKPTTGEGLEWGVLFGFGPGLTVETVVLRSVPL
modifications: (1)..(390) AHH25569.1
B4: AFU07719.1: Type-III PKS enzyme from Paphiopedilum purpuratum (protein, listed as Paphiopedilum purpuratum)
chain: MPGLENRKKVEAPKRAEGLATILAIGRANPPNDMEQSTFPDFYFRVTNSEHLVSLKKKFERICEKTAIRRRHFVWNEEILNANPCLRTHMEPSLNVRQKIAVAEIPKLGAEAASRAIEEWGQPKSHITHLIFCTTSGMDLPGADYKLTRILGLNPNVQRVMLYQQGCFAGGTVLRLAKCFAESQKGARVLVVCSETTTVLVRAPSEDYQDDLVTQALFADGASALIVGADPDEEAKEQPIFTIVSATQVILPDSDGAIGGHLGEGGLTATLHRDVPLIISKNVSKCLEEAFGPLGISDWNSIFWAPHPGGRAILDQVEERVGLKPEKLWASRHVLAEYGNMSSVCVHFVLDEIRKRSTKEGKTTTGEGFDWGVLFGFGPGLTVETVILRSVPLN
modifications: (1)..(394) AFU07719.1
B5: PKA53998.1: Type-III PKS enzyme from Apostasia shenzhenica (protein, listed as Apostasia shenzhenica)
chain: MPGLQIISKASSRAADGLAAILAIGRANPPNSMDQSSYPEFYFRVMDSDHLVDLKKKFQRICERTAIRKRHFVWNEELLRDNPCLRTFMDSSLNVRQKVAVAEIPKLGAAAAERAIEEWGQPRSGITHLIFCTTSGMDLPGADYQLTKILGLNADVQRVMLYQQGCFAGGTVLRLAKVLAESRKGARVLVVCAETTTVLIRAPSVEHQDDLVTQALFADGASALIVGADPVEEVNERPLFSIISASQVILPDSDGAIGGHLGEGGLTATLHRDVPLIISKNVSKCLEDAFSPLGISDWNSIFWAPHPGGRAILDQVEERVGLKPEKMWASRHVLAEYGNMSSVCVHFVLDEMRKRSAKEGKPTTGEGLEWGVLFGFGPGLTVETVVLRSHPIN
modifications: (1)..(393) PKA53998.1
B6: CAA10514.1: Type-III PKS enzyme from Bromheadia finlaysoniana (protein, listed as Bromheadia finlaysoniana)
chain: MASQVSPPSINMAPKADGFASILAIGRANPKNFIEQSTFPDFFFRVTNTEHMVDLKKKFQRICDKTSIRKRHFIWNEELLTANPSLCTFMGNSLNLRHEVAVREIPKLGAEAATKAIQEWGQPKSFITHLVFCTTSGMDLPGADYQLTQILGLNLDIERVMLHQQGCFLGGTTLRLAKYLAESRKGARVLVVCAETTTEFFRAPSEEHQEDLVTQSLFGDGASALIVGADPHEGARERASFILVSSSQVLLANSAHAITGHVSEGGIKATLHRDVPQIISNNLGKCLEEAFTPLGISDWNSIFWVLHPGGRAILDQVEEKMGLEPEKLLISRHVLLEYGNMSSVCVHFALDEMRKRSSNEGKATTGEGLEWGVLFGFGPGLTIETVVLRSVSIS
modifications: (1)..(394) CAA10514.1
B7: AAX54693.1: Type-III PKS enzyme from Phalaenopsis hybrid cultivar (protein)
chain: MPTIESIKKAPRAHGFASILAIGKANPENFIEQCHYPDFYFRVTSSEHLVDLKEKFQRMCDRTAIRKRHFVWNEDLLTANPCLRTYMDKSLNIRQEVAIREIPKLGAEAATKAIQEWGQPKSSITHLIFCTTSGMDLPGADFQLTQILGLNPNVERVMLYQQGCFAGGTTLRLAKCLAESREGARVLVVCAETTTVVFRAPSEEHQDDLVTQALFADGASAVIVGVDPNEAAHERASFIIVSASQVLLPDSAGAIGGHVSEGGLTATLHRDVPQIVSKNVGKCLEEAFTPFGISDWNSIFWVPHAGGRAILDQVEERVGLKPEKLSVSRHVLAEYGNMSSVCVHFALDEMRKKSAKEAKATTGEGLEWGVLFGFGPGLTVETVVLHSVPI
modifications: Phalaenopsis hybrid cultivar; (1)..(390) AAX54693.1
B8: AFU07718.1: Type-III PKS enzyme from Paphiopedilum micranthum (protein, listed as Paphiopedilum micranthum)
chain: MPGLENRKKVEAPIRAEGLATIMAIGRANPPNAMEQSTFPDFYFRVTNSEHLVGLKKKFQRICEKTAIRRRHFVWNEEILNANPCLRTHMEPSLNVRQKIAVAEIPKMGAEAASRAIEEWGQSKSRITHLIFCTTSGMDLPGADYQLTRILGLNPNVQRVMLYQQGCFAGGTVLRLAKCLAESQKGARVLVVCSETTAVLVRAPSEEYHDDLVTQALFADGASALIVGADPDEEAKERPIFTIVSTTQVILPDSDGAIGGHLGEGGLTATLHRDVPLIISKNVSKCLEEAFTPLGISDWNSIFWAPHPGGRAILDQVEERASLKPEKLWASRHVLTEYGNMSSVCVHFVLDEIRKRSAKEGKATTGEGFDWGVLFGFGPGLTVETVVLRSVPLN
modifications: (1)..(394) AFU07718.1
B9: XP_020704102.1: Type-III PKS enzyme from Dendrobium catenatum (protein, listed as Dendrobium catenatum)
chain: MPSLESIKKAPRADGFASILAIGRANPENFIEQSAYPDLFFRITKSEHLVDLKNKFKRICDKTAIRKRHFVWTEEFITANPCFSTFMEKSLNIRQEVAIREIPKLGAEAAAKAIQEWGQPKSRITHLIFCTRSGMGLPGPDYQLTQILGLNPNVERVMIYQQGCFAGGTTLRLAKCLAESHKGARVLVVCAETSTVLFRAPSMEHQEDLVTQALFADGASALIVGADPDETADEHASFVIVSTSQVLLPESAGAIGGHVSEGGFLPMIHRDVPQIVSKNIGKCLEEAFTPLGIMDWNSIFWVPHPGGRAILDQLDERVGLKPEKLFISRHVLKEYGNMSSASVHFALDEMRKWSAKEGTTGEGLEWGVLFGFGPGVTVDTVVLRSVPI
modifications: (1)..(388) XP_020704102.1

Test system: E. coli derivative strain which overexpressed an acyl-CoA synthetase (fadD) gene and expressed an olivetolic acid cyclase (OAC) from Cannabis sativa
Assay: OL, OLA and PDAL production in E. coli from plasmid-expressed Type-III PKS genes
Format: cell-based
Conditions: gene on plasmid; for Total: OL + OLA + PDAL; for OL / OLA / PDAL: constitutive promoter, culture spiked with 4 mM hexanoic acid
Description: To test olivetolic acid production in E. coli, strains comprising a putative OLS gene and an OAC gene from C. sativa were inoculated in multi-well plates containing LB supplemented with 1% glucose and appropriate concentrations of antibiotics. After 6 hours of cultivation at 32° C., the cells were transferred with a 10% inoculum to a P-limited seed medium (see Table 2) and cultivated for ˜18 hours at 32° ° C. to reach an OD of 2.0-4.0. The cultures were transferred with a 20% inoculum in a P-minimal medium (see Table 3) supplemented with 2% glucose and appropriate concentrations of antibiotics. After 3 hours of cultivation at 32° C., the culture was spiked with 4 mM hexanoic acid (˜OD 1.5-2.0). The resulting cultures were then harvested at either 3 hours or 21 hours post hexanoic acid spike; a final OD was taken. 300 μL of butyl acetate containing 500 mg/L undecanoic acid was added to each multi-well plate. The plates were then vortexed for 30 minutes at 1500 rpm and centrifuged for 10 minutes at 4500 rpm. 50 μL of organic layer was transferred to a 96-well plate and derivatized with 50 μL of N,O-Bis(trimethylsilyl)trifluoroacetamide (BSTFA). The plate was then incubated at room temperature for 2 hours to allow for complete derivatization. The samples were then run on GC-FID for analytical quantification of olivetolic acid (OLA), olivetol (OL), PDAL, and hexanoic acid.
Olivetol, PDAL, OLA, HTAL, CBGA and combinations thereof were analyzed by LCMS or LCMS/MS methods using C18 reversed phase chromatography coupled to either EXACTIVE™ (ThermoFisher) or QTRAP® 4500 (Sciex) mass spectrometers.
For reversed phase LCMS, compounds were identified by their LC retention times and MRM transitions specific to the compounds. LCMS/MS analysis was conducted on a Shimadzu UHPLC system coupled with AB Sciex QTRAP 4500 mass spectrometer. Agilent Eclipse XDB C18 column (4.6×3.0 mm, 1.8 μm) was used with a 1-min gradient elution at 1 mL/min using water containing 0.1% ammonia acetate as mobile phase A and 90% methanol containing 0.1% ammonia acetate as mobile phase B. The LC column temperature was maintained at 45° C. Negative ionization mode was used for all the analytes.
The genes for 20 Type-III PKS enzymes were codon optimized for E. coli and cloned under control of a constitutive promoter into an expression vector (p15a replicon, carbenicillin resistance marker). The 20 plasmids were transformed into an E. coli derivative strain which overexpressed an acyl-CoA synthetase (fadD) gene and expressed an olivetolic acid cyclase (OAC) from Cannabis sativa.
The in vivo assay procedure and analytical methods were performed as described above.

Row | Molecule | Total [µM] | OL [µM] | OLA [µM] | PDAL [µM] | levels of OLA relative to the E. coli strain with OLS from C. sativa
1 | B1 | 468 | 54 | 36 | 378 | 
2 | B2 | 1072 | 432 | 390 | 250 | 
3 | B3 | 320 | 93 | 98 | 129 | 
4 | B4 | 1406 | 289 | 302 | 815 | 
5 | B5 | 1005 | 268 | 256 | 481 | 
6 | B6 | 61 | 0 | 0 | 61 | 
7 | B7 | 1874 | 606 | 653 | 615 | over two-fold
8 | B8 | 948 | 159 | 152 | 638 | 
9 | B9 | 148 | 26 | 19 | 102 | 
